# T1: 278B
# T1 construct: also called LHD278 B; LHD278 chainB
# T1 chain: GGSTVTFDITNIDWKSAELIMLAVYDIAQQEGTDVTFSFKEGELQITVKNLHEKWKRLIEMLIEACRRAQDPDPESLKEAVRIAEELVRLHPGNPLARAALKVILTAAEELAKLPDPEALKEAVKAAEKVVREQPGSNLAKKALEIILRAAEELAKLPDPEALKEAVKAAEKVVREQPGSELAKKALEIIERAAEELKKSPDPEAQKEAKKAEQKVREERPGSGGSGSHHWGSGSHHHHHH
# T2: 275B
# T2 construct: also called LHD275 B; LHD275B
# T2 chain: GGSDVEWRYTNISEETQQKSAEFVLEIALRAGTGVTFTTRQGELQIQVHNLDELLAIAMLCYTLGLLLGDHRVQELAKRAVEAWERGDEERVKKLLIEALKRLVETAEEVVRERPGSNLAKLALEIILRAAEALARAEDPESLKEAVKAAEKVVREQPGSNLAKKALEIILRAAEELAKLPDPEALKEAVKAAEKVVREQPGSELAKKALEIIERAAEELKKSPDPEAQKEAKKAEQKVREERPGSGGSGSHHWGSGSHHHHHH
# T3: 284B
# T3 construct: also called LHD284 B; LHD284 chainB
# T3 chain: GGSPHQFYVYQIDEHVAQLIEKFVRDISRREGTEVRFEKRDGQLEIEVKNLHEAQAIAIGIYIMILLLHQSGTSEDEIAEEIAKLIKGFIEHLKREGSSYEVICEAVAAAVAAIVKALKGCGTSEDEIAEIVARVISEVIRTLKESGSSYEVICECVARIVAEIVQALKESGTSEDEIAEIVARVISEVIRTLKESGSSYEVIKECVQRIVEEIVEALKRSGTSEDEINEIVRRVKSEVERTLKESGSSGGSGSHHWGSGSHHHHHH
# T4: 298B
# T4 construct: also called LHD298 B; LHD298 chainB
# T4 chain: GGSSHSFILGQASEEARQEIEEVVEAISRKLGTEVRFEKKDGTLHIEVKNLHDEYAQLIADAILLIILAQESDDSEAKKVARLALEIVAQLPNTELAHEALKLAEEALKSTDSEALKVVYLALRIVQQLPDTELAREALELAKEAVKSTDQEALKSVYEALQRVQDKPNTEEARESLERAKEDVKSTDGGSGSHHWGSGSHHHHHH
# T5: DF202
# T5 construct: Bivalent connector
# T5 chain: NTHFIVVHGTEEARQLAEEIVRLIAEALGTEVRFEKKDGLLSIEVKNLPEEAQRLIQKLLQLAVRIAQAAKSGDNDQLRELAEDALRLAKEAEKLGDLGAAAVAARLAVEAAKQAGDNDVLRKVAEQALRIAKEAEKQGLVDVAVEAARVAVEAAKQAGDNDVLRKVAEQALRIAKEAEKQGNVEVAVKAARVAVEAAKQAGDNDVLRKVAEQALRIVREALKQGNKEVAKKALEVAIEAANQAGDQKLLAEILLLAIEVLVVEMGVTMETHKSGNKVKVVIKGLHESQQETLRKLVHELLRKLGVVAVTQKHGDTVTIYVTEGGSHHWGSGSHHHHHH
# T6: DFB0
# T6 construct: Bivalent connector
# T6 chain: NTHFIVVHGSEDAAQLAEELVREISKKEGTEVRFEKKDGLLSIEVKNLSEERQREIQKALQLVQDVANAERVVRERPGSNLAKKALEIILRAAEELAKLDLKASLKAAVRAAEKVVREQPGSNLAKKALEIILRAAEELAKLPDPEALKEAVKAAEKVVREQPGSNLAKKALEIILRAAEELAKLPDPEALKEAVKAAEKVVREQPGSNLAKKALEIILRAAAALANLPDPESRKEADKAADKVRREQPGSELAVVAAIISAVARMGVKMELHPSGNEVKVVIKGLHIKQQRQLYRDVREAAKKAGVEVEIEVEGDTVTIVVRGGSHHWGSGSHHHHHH
# T7: DFB-1
# T7 construct: Bivalent connector
# T7 chain: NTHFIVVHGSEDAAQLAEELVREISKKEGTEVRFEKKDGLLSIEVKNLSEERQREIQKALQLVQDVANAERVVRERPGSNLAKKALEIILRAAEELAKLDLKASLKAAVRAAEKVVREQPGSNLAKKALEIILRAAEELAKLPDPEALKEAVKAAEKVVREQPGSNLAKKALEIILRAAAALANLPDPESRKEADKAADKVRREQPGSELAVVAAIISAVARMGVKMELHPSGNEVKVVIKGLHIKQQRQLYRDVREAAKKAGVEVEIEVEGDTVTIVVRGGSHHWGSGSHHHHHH
# T8: DF206
# T8 construct: Bivalent connector
# T8 chain: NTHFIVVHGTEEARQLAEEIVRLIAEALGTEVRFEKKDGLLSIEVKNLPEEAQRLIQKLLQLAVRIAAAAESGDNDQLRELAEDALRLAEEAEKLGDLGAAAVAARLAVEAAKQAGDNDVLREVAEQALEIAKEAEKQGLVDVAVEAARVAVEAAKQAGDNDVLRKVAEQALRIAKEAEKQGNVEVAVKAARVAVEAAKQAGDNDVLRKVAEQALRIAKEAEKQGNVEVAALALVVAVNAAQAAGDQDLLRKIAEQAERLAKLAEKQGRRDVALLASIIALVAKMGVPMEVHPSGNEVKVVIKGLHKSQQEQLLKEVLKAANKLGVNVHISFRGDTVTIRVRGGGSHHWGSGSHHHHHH
# T9: 289B
# T9 construct: also called LHD289 B; LHD289 chainB
# T9 chain: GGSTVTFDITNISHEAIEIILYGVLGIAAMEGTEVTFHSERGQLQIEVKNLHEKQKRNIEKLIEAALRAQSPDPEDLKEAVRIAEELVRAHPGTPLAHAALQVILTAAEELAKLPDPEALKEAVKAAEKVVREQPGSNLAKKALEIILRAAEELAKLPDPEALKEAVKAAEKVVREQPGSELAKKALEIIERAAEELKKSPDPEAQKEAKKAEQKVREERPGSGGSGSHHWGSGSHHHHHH
# B1: LHD278 chainA (designed binder)
# chain: GRQEKVLKSIEETVRKMGVRMLTHRGGNAVIVVIEGLHPSQIKQLMQDVIKTAKKQGVTVTITVSGDIVVIMVVVGASDEEQEEARRLVQEIARALQEAKRKGANEEQLEQLLRELLERAEREG
# notes: also called LHD278A
# B2: LHD275 chainA (designed binder)
# chain: GRQEKVLKSIEETVRKMGVEMLTFRAGNAVIVVIRGLHPEQAKQLLRDVSQTAHKQGVTVTLTFHGDVVFILVLVGASEEEQKHMQERIQELARIIHEAKRRGVSEEQLREIAEKMAKEIQEWG
# notes: also called LHD275A
# B3: DF275A-1 (designed binder)
# chain: HHHHHHGSGSGRQEKVLKSIEETVRKMGVEMLTFRAGKAVIVVIRGLHPEQAKQLLRDVSQTAHKQGVTVTLTFHGDVVFILVLVGASEEQQRAMQLLIQALARIIHEAKRRGVSEEQLKRMIEAAARLIEVLLKALEAAREGNTDEVREQLQRALEIVREIGLTAAVRLALLVVEAVATLAAKRGNTDAVREALEVALEIARESGTTEAVKLALEVVARVAIEAARRGNTDAVREALEVALEIARESGTTEAVKLALEVVARVAIEAARRGNTDAVREALAVAVKIALKSGTEEAFRLAKEVIKRVSDEAKKQGNEDAVKEAESFDAAAELILSLLKLFRELHERGTEIVVEVHINGRKTEIEVQGIDKRLLQIILEVIIEEIAREGPDKVEVNVHSGGQTWTFRYGGS
# notes: Bivalent connector
# B4: LHD284 chainA (designed binder)
# chain: TDELLERLRQLFEELHERGTIIIVEVHINGERQTKYLILAPKEELKKHLERIREKIEREGSSEVEVKVTSGGTTWTFNEK
# notes: also called LHD284A
# B5: LHD298 chainA (designed binder)
# chain: GRQEKVLKSIEETVRKMGVTMETHRSGNTVKVVIKGLHESQQEQLHKDVEETVQKEGVFVLVSHHGDTVTIQVYE
# notes: also called LHD298A
# B6: DFA0 (designed binder)
# chain: TTNFHLINGSEEARQLIEKAVRAISKKEGTEVHFEKSDGTLEIRVKNLHEKREREIKKVIELILEVAAAERIVRERPGSNLAKKALEIILRAAEELAKADVDAALEAAVRAAEKVVREQPGSNLAKKALEIILRAAEELAKLPDPEALKEAVKAAEKVVREQPGSNLAKKALEIILRAAEELAKLPDPEALKEAVKAAEKVVREQPGSNLAKKALEIILRAAAALANLPDPESRKEADKAADKVRREQPGSELAVVAAIISAVARMGVKMELHPSGNEVKVVIKGLHIKQQRQLYRDVREAAKKAGVEVEIEVEGDTVTIVVRGGSHHWGSGSHHHHHH
# notes: Bivalent connector
# B7: LHD289 chainA (designed binder)
# chain: GRQEKVLKSIEETVRKMGVTMLTHRHGNVVFVVILGLHKQQALQLLRDVHRTAHKQGVTLSITFSGDIVVIAVTVGASEEEKKEVRKIVKEIAKQLRHAETEEEAKEIVQRVIEEWQEEG
# notes: also called LHD289A
# Key:
# 278B [1] = target: T1, 278B; assay: BLI, steady state fit
# Description: (§1) Biolayer interferometry experiments were performed on an OctetRED96 BLI system (ForteBio, Menlo Park, CA). Streptavidin coated biosensors were first equilibrated for at least 10 minutes in Octet buffer (10 mM HEPES pH 7.4, 150 mM NaCl, 3 mM EDTA, 0.05% Surfactant P20) supplemented with 1 mg/ml Bovine Serum Albumin (SigmaAldrich). Enzymatically biotinylated designs were immobilized onto the biosensors by dipping the biosensors into a solution with 10-50 nM protein for 30-120 s. This was followed by dipping in fresh octet buffer to establish a baseline for 120 s. Titration experiments were performed at 25° C. while rotating at 1,000 r.p.m. Association of designs was allowed by dipping biosensors in solutions containing designed protein diluted in octet buffer until equilibrium was approached followed by dissociation by dipping the biosensors into fresh buffer solution in order to monitor the dissociation kinetics. Steady-state and global kinetic fits were performed using the manufacturer's software (Data Analysis 9.1) assuming a 1:1 binding model.
# 278B [2] = target: T1, 278B; assay: BLI, global kinetic fit, 1:1 model
# Description: as §1
# [3] = target: the molecule itself; assay: SEC titration of the protomer alone at several injection concentrations (Superdex 75, normalised A230); self-association
# 275B [4] = target: T2, 275B; assay: BLI, steady state fit
# Description: as §1
# 275B [5] = target: T2, 275B; assay: BLI, global kinetic fit, 1:1 model
# Description: as §1
# 275B [6] = target: T2, 275B; assay: SEC of mixed components; tetramer (control pentamer) listed in Table 6, neighbours in the chain
# Description: (§2) Complexes and individual components were diluted in 20 mM Tris pH 8.0, 100 mM NaCl. After o/n equilibration of the mixtures at room temperature or 4 degrees C., 500 ul of sample was injected onto a Superdex™ 200 10/300 increase GL (dimers, linear assemblies) or Superose™ 6 increase 10/300 GL (symmetric assemblies) (all columns from GE healthcare) using the absorbance at 230 nm or 473 nm (for GFP tagged components) as read-out. Dimers were mixed at monomer concentrations of 5 μM or higher. Trimer and ABCD tetramer mixtures contained 5 μM of the bivalent connector, and 7.5 μM of each terminal cap (lower absolute concentrations with the same ratios were used for some trimers). ABCA tetramer mixtures contained 5 μM per bivalent connector and 15 μM terminal cap. The hexamer mixture contained 3 μM of components C and D, 3.6 μM of B and E, and 4.4 μM of A and F. The branched assembly shown in FIG. 4A contained 2.8 μM of the trivalent connector and 4 μM of each cap. For the exchange experiment shown in FIG. 5A, the ABC trimer was preincubated at concentrations of 6 μM B and 9 μM each of A and C. C′ was then added to reach a final concentration of 2 μM B, 3 μM each of A and C, and 6 μM C′.
# 284B [7] = target: T3, 284B; assay: BLI, steady state fit
# Description: as §1
# 284B [8] = target: T3, 284B; assay: BLI, global kinetic fit, 1:1 model
# Description: as §1
# 298B [9] = target: T4, 298B; assay: BLI, steady state fit
# Description: as §1
# 298B [10] = target: T4, 298B; assay: BLI, global kinetic fit, 1:1 model
# Description: as §1
# DF202 = target: T5, DF202; assay: SEC of mixed components; trimer listed in Table 6
# DFB0 = target: T6, DFB0; assay: SEC of mixed components; linear tetramer listed in Table 6, neighbours in the chain
# DFB-1 = target: T7, DFB-1; assay: as above
# DF206 = target: T8, DF206; assay: SEC of mixed components; tetramer (control pentamer) listed in Table 6, neighbours in the chain
# Description: as §2
# 289B [11] = target: T9, 289B; assay: BLI, steady state fit
# Description: as §1
# 289B [12] = target: T9, 289B; assay: BLI, global kinetic fit, 1:1 model
# Description: as §1
binder,measurement,setting,value
B1,Kd,278B [1],3.4 nM
same,Kd,278B [2],0.8 nM
same,koff,278B [2],0.00022 s⁻¹
same,kon,278B [2],290000 M⁻¹ s⁻¹
same,binding result,[3],no binding (tested: 52.4 uM)
B2,Kd,275B [4],4.5 nM
same,Kd,275B [5],2.9 nM
same,koff,275B [5],0.00041 s⁻¹
same,kon,275B [5],140000 M⁻¹ s⁻¹
same,binding result,[3],no binding (tested: 8.0 uM)
B3,binding result,275B [6],binds
B4,Kd,284B [7],97 nM
same,Kd,284B [8],8.9 nM
same,koff,284B [8],0.0012 s⁻¹
same,kon,284B [8],130000 M⁻¹ s⁻¹
B5,Kd,298B [9],16 nM
same,Kd,298B [10],3.5 nM
same,koff,298B [10],0.00022 s⁻¹
same,kon,298B [10],64000 M⁻¹ s⁻¹
B6,binding result,DF202,binds
same,binding result,DFB0,binds
same,binding result,DFB-1,binds
same,binding result,DF206,binds
B7,Kd,289B [11],610 nM
same,Kd,289B [12],1080 nM
same,koff,289B [12],0.057 s⁻¹
same,kon,289B [12],53000 M⁻¹ s⁻¹

# Source: patent US20240368233A1 (University of Washington, published 2024)
